For one data set, the target named is IFNα2b[Tn] (UniProt P01563).
In a further data set the target is [Tn]-MalE-hGH (UniProt P01241).
[Tn]-MalE-hGH, sequence (P01241 27-217): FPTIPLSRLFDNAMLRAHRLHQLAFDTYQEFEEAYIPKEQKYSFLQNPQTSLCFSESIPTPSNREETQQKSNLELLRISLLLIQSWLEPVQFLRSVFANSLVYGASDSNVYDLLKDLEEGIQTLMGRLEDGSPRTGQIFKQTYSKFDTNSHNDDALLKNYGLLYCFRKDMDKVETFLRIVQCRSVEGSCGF

IFNα2b[Tn], sequence (P01563 whole entry, looked up): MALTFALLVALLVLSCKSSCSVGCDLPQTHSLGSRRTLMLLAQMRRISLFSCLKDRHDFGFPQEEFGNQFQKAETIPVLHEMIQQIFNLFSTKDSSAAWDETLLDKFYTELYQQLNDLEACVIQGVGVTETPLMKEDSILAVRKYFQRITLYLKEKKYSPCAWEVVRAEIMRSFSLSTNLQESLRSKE

For the substance CgtBOH4384 (Δ30, C-terminal MalE), the “MALDI mass of the galactosylated protein” value with IFNα2b[Tn] is “The presence of the species at m/z 19665 is the proof that the IFNα2b[Tn] protein can be galactosylated by CJL-136”. Moreover, in the data set with IFNα2b[Tn]-FCHASE, the “CE-MS mass shift of the peptide” value was “the molecular weight of IFNα2b[T-Ag]-FCHASE was 162 Dalton higher than that of IFNα2b[Tn]-FCHASE”, the Specific Activity (mU/mg) on 1 mM IFNα2b[Tn]-FCHASE amounted to 272 mU/mg and the “percent of IFNα2b[Tn]-FCHASE converted into IFNα2b[T-Ag]-FCHASE after 30 minutes (capillary electrophoresis)” value is 91.9% of the material had been converted into IFNα2b[T-Ag]-FCHASE.

For the substance CgtB11168 (Δ30, C-terminal MalE), the “PNA blot after the galactosylation reaction” value in data set [Tn]-MalE-hGH is reported as “Increased staining in Lane D after PNA blotting”.

The substance CgtBOH4384 (Δ30, N-terminal MalE) showed a Specific Activity (mU/mg) on 1 mM IFNα2b[Tn]-FCHASE in the data set on IFNα2b[Tn]-FCHASE of 14 mU/mg.

(Values after US20110111454.)
